Literature values in paper PMC9360543.

Tests used:
GRP78 (Homo sapiens) = GRP78 (Homo sapiens) (UniProt P11021)
[1] = target: Integrin αvβ5 (Homo sapiens) (UniProt P06756); test: solid-phase ELISA-based binding assay
Chain of UniProt P06756 (P06756 31-992, chain 1 of 2): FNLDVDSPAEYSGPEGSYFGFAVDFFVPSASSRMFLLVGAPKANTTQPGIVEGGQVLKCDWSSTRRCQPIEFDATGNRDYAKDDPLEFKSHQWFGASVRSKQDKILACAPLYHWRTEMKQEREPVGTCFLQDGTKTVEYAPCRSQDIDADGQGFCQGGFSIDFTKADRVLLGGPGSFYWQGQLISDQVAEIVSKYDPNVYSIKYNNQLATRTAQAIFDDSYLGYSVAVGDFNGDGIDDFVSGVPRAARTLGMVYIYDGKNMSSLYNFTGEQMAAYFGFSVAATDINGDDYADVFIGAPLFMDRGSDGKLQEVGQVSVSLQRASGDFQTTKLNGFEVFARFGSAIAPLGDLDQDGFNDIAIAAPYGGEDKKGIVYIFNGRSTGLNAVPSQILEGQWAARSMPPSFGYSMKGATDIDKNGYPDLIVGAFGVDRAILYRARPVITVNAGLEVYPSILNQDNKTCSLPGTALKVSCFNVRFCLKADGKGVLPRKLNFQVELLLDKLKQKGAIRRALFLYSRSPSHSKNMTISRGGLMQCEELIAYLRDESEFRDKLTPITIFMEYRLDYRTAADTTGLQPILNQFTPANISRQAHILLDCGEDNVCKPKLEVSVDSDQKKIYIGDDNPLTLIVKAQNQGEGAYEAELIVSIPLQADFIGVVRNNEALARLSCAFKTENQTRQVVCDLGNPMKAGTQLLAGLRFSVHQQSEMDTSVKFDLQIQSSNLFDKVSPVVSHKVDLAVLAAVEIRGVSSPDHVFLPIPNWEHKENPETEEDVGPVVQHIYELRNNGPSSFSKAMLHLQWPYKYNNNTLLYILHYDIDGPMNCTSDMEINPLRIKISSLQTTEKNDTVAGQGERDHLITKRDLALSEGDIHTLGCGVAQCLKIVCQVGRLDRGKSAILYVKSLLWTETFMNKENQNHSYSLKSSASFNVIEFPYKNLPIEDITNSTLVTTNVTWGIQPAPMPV
Chain of UniProt P06756 (P18084 24-719, chain 2 of 2, further chain): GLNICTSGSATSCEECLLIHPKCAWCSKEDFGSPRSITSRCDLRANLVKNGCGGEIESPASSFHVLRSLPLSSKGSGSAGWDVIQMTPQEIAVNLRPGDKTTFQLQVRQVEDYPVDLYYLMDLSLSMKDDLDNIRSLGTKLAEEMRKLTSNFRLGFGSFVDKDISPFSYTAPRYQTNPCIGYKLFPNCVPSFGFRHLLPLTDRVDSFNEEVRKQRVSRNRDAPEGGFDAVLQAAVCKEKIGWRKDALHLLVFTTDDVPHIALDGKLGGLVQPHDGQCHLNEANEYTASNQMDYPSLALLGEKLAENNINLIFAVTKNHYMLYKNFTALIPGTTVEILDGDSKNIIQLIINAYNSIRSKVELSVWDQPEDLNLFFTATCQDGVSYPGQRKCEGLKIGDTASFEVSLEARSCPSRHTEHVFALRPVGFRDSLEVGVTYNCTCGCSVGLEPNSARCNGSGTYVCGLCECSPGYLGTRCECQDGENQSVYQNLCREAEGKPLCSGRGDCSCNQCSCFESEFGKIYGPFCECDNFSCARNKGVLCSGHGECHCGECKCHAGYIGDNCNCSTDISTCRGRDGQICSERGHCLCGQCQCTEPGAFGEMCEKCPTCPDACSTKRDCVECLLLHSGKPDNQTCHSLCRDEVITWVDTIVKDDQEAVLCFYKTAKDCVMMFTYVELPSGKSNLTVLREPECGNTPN

Chain of UniProt P11021 (P11021 19-654): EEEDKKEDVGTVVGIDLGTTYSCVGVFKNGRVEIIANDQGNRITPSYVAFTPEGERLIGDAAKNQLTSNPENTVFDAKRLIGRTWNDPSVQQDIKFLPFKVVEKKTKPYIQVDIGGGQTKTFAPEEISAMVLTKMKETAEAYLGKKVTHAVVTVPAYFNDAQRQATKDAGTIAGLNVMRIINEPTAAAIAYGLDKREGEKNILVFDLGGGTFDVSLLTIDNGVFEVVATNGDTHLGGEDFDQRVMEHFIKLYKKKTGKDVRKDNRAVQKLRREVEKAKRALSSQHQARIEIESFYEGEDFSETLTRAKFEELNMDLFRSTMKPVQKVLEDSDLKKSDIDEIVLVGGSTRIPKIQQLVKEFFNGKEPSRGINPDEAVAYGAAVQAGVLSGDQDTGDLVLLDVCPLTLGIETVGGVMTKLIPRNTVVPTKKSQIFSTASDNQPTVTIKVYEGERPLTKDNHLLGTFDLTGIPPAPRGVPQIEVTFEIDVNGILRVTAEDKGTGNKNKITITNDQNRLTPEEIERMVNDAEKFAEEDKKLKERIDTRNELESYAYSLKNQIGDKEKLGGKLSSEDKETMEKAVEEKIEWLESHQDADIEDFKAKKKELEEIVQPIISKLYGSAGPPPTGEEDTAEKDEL

Kd (GRP78 (Homo sapiens)): 0.00858 µM
Kd [1]: 40 µM
Substance: Isthmin-1 (from UniProt B1AKI9)
